Reference: the supplement of paper PMC10126150
± gives the standard deviation of the averaged measurements.

System: ATP
Experiment: switch fluorescence ratio, 500 uM ATP over buffer (Cy3 cluster intensity, sum of 5 cycles each) (fold (ratio)); higher = stronger signal-on switching upon ATP binding; sequences stand for … in TCGTCGGCAGCGTCAGATGTGTATAAGAGACAGTTTTTTTTTTTTTTTTTTTTTTTTT…TC
Details: aptamer strand: ATP DNA aptamer (quencher-CACCTGGGGGAGTATTGCGGAGGAAGG + anchor), 100 nM annealed; ATP concentration: 500 uM
Method in brief: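 The quencher-labelled ATP aptamer, at 100 nM, was annealed to Cy3-labelled switching-strand clusters on a modified Illumina MiSeq flow-cell. The clusters were imaged in selection buffer, then after 15 min with 500 uM ATP at 22 °C, and this buffer/ATP cycle ran five times with NaOH stripping and re-annealing between runs. Per-cluster fluorescence ratios, summed target-cycle over summed buffer-cycle Cy3 intensity, were averaged per switch-domain sequence. Clusters outside 100-1000 RFU were excluded.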
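Also: ATP exposure 15 min at 22 °C before imaging.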

Sequence	switch fluorescence ratio
TGTTGAAAAT	1.02 ± 0.048
TGTTGAACGT	1.004 ± 0.0086
TGTTGAGTTG	0.9749 ± 0.0031
TGTTGATACT	1.06 ± 0.12
TGTTGCAGAG	1.03 ± 0.049
TGTTGCGAAA	1 ± 0.025
TGTTGCGCCG	0.929 ± 0.081
TGTTGCGTGG	0.992 ± 0.012
TGTTGGGAGG	0.969 ± 0.017
TGTTGGGGAC	1.023 ± 0.0065
TGTTGGGTTT	0.998 ± 0.031
TGTTGGTAAT	0.996 ± 0.012
TGTTGGTATA	1.01 ± 0.012
TGTTGGTGGG	0.989 ± 0.024
TGTTGTGATT	0.994 ± 0.023
TGTTGTGCAC	1.02 ± 0.023
TGTTGTTTCG	0.989 ± 0.025
TGTTGTTTGT	1.02 ± 0.026
TGTTTAAAGG	1.02 ± 0.051
TGTTTAACAT	0.981 ± 0.035
TGTTTACTTT	0.98 ± 0.014
TGTTTAGCTT	1.024 ± 0.0066
TGTTTATTAG	0.986 ± 0.01

Sequence	switch fluorescence ratio
TGTTTATTCC	1.11 ± 0.087
TGTTTCAACT	0.9843 ± 0.0045
TGTTTCCATG	0.988 ± 0.016
TGTTTCCGTG	0.9766 ± 0.0027
TGTTTCTCTG	1.01 ± 0.023
TGTTTGAAAA	0.953 ± 0.027
TGTTTGAAGA	1 ± 0.028
TGTTTGCCAG	1 ± 0.05
TGTTTGGATG	0.973 ± 0.029
TGTTTGGATT	0.988 ± 0.013
TGTTTGGCGG	0.966 ± 0.02
TGTTTGGCTT	0.9619 ± 0.0079
TGTTTGGTAA	0.981 ± 0.024
TGTTTGTAAA	1.01 ± 0.029
TGTTTGTAGG	0.97 ± 0.043
TGTTTGTCA	0.989 ± 0.022
TGTTTGTGAG	1 ± 0.045
TGTTTGTGCG	0.9633 ± 0.0057
TGTTTGTTT	1.03 ± 0.025
TGTTTTAAAA	0.99 ± 0.027
TGTTTTAGCT	0.973 ± 0.021
TGTTTTAGG	0.998 ± 0.048
TGTTTTATCA	0.9742 ± 0.0037

Sequence	switch fluorescence ratio
TGTTTTCGCA	1 ± 0.021
TGTTTTGAGA	1 ± 0.023
TGTTTTGATC	0.977 ± 0.029
TGTTTTGGCG	0.959 ± 0.018
TGTTTTGGTT	0.991 ± 0.025
TGTTTTGTGG	1.02 ± 0.018
TGTTTTTAGA	1.01 ± 0.019
TGTTTTTGGG	0.989 ± 0.029
TGTTTTTGGT	0.978 ± 0.016
TGTTTTTTAA	0.99 ± 0.044
TGTTTTTTGC	0.995 ± 0.056
TTAAAAAATT	1.02 ± 0.039
TTAAAAACCT	1.65 ± 0.62
TTAAAAAGTG	1.02 ± 0.068
TTAAAAATCG	1.02 ± 0.037
TTAAAAATGT	0.958 ± 0.069
TTAAAACTAT	1.015 ± 0.0089
TTAAAAGAGG	1.01 ± 0.014
TTAAAAGGTC	1.027 ± 0.0083
TTAAAATCAC	1.09 ± 0.077
TTAAAATCAG	1.01 ± 0.027
TTAAAATCGC	0.957 ± 0.022
TTAAAATTCT	1.04 ± 0.06

Sequence	switch fluorescence ratio
TTAAACCGCT	1.08 ± 0.053
TTAAACGGAC	1.36 ± 0.021
TTAAACGGTA	1.03 ± 0.029
TTAAACTTAT	1.047 ± 0.0024
TTAAAGATTG	0.987 ± 0.014
TTAAAGATTT	1.07 ± 0.098
TTAAAGCACG	1.07 ± 0.023
TTAAAGGCGT	0.982 ± 0.021
TTAAAGGGTA	0.992 ± 0.054
TTAAAGGTGG	0.984 ± 0.042
TTAAATATGG	1.02 ± 0.033
TTAAATGAAT	0.991 ± 0.022
TTAAATGTGT	1.02 ± 0.018
TTAAATGTTT	0.994 ± 0.015
TTAAATTGGT	0.99 ± 0.025
TTAAATTTGG	1.01 ± 0.027
TTAACAAGGA	1.018 ± 0.0085
TTAACCAGCA	1.05 ± 0.032
TTAACCCGCC	1.16 ± 0.14
TTAACGGTCG	1.02 ± 0.072
TTAACGTGTG	0.975 ± 0.029
TTAACTTGAG	0.9831 ± 0.0047
TTAAGAAGCC	0.987 ± 0.049

Sequence	switch fluorescence ratio
TTAAGACTTT	1.02 ± 0.032
TTAAGATATT	0.9797 ± 0.0066
TTAAGATGAG	0.961 ± 0.035
TTAAGATTCC	1.1 ± 0.028
TTAAGATTTA	0.9933 ± 0.0077
TTAAGCACCT	1.304 ± 0.013
TTAAGCCCAT	1 ± 0.011
TTAAGCCGGT	1.04 ± 0.036
TTAAGCGGCG	0.992 ± 0.016
TTAAGGCCAC	1.034 ± 0.0055
TTAAGGCCGG	1.03 ± 0.025
TTAAGGCGCT	0.976 ± 0.019
TTAAGGCGGA	1.04 ± 0.023
TTAAGGCTTT	0.984 ± 0.025
TTAAGGGAAA	1.02 ± 0.02
TTAAGGGGAA	1.06 ± 0.063
TTAAGGGTAA	0.967 ± 0.047
TTAAGGGTAT	1 ± 0.011
TTAAGGGTGT	1.02 ± 0.04
TTAAGGTCCG	0.987 ± 0.047
TTAAGGTGTG	1.02 ± 0.041
TTAAGGTTAG	0.976 ± 0.024
TTAAGTCAAG	0.98687 ± 0.00044

Sequence	switch fluorescence ratio
TTAAGTCCGC	1.17 ± 0.034
TTAAGTGGAA	0.997 ± 0.049
TTAAGTGTAC	1.03 ± 0.026
TTAAGTGTGG	0.973 ± 0.031
TTAAGTGTTT	1 ± 0.022
TTAAGTTAGC	1.06 ± 0.045
TTAAGTTGAG	0.983 ± 0.021
TTAAGTTTGT	0.994 ± 0.022
TTAAGTTTTG	1.016 ± 0.0078
TTAATAAAC	1.01 ± 0.017
TTAATAAAGG	1.02 ± 0.018
TTAATAACGG	1.04 ± 0.06
TTAATAAGCT	0.978 ± 0.022
TTAATAAGTG	0.964 ± 0.028
TTAATAATTC	0.996 ± 0.032
TTAATACCGC	1.12 ± 0.022
TTAATATGCT	0.997 ± 0.049
TTAATATGGT	0.99 ± 0.04
TTAATATTTT	0.985 ± 0.026
TTAATCTAGC	0.991 ± 0.021
TTAATCTGGG	0.992 ± 0.016
TTAATCTTTC	1.09 ± 0.05
TTAATGAGTG	0.99 ± 0.015

Sequence	switch fluorescence ratio
TTAATGGTTG	0.975 ± 0.032
TTAATGGTTT	1.11 ± 0.17
TTAATGTGGC	0.986 ± 0.015
TTAATTAAGT	0.987 ± 0.04
TTAATTACCA	0.984 ± 0.029
TTAATTATCT	1.01 ± 0.051
TTAATTCGCT	1.04 ± 0.098
TTAATTGTTC	1.06 ± 0.068
TTAATTTAAA	0.9752 ± 0.0031
TTAATTTGTC	1.03 ± 0.061
TTAATTTTTT	0.995 ± 0.037
TTACAAAATA	1.03 ± 0.048
TTACAAATTT	0.9647 ± 0.0066
TTACAAGATT	1.03 ± 0.0047
TTACACGAGA	1.054 ± 0.0057
TTACACGTTC	1.03 ± 0.018
TTACATATGA	1.04 ± 0.016
TTACATTTTT	1.05 ± 0.06
TTACCCCCGT	1.56 ± 0.079
